Measured values from paper PMC7537338, “CD47/SIRPα blocking peptide identification and synergistic effect with irradiation for cancer immunotherapy” (Journal for Immunotherapy of Cancer, 2020).

What was measured:
[1] = target: human CD47-IgV-Domain-hIg fusion protein (human), Q08722; assay: flow cytometry on cells; competition: CD47-IgV-Domain-hIg (20 nM) incubated with titrating concentrations of peptide in PBS pH 7.4 for 1 hour at 4°C, then on SIRPα-overexpressing CHO cells 30 min at 4°C; PE-conjugated goat anti-human IgG; IC50 from sigmoidal dose response curves
Chain of human CD47-IgV-Domain-hIg fusion protein (human), Q08722 (Q08722 19-141): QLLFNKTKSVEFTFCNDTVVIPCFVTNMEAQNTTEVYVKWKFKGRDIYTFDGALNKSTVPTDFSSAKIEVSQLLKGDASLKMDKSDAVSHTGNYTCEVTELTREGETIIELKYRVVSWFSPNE

[2] = target: T1, mouse CD47-IgV-Domain-hIg fusion protein (mouse), Q61735; assay: as above
T1 chain: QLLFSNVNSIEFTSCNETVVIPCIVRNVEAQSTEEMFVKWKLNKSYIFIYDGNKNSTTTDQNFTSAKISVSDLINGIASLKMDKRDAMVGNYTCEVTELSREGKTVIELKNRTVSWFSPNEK

[3] = target: T2, mouse CD47-IgV-Domain protein (mouse), Q61735; assay: MST; human or mouse CD47-IgV-Domain protein labeled with NT-647, about 50 to 200 nM; unlabeled peptides or ligand protein diluted serially; 50 mM Tris, 150 mM NaCl, 10 mM MgCl2, 0.05% Tween-20, 0.5% DMSO, pH 7.5; 30 min at room temperature; 25°C
T2 chain: T1 chain

[4] = target: human CD47-IgV-Domain protein (human), Q08722; assay: as above
Chain of human CD47-IgV-Domain protein (human), Q08722 (Q08722 19-141): as the sequence (Q08722 19-141) above

Question: AWSATWSNYWRH (modifications not checked) [pep-20] was tested. Which IC50 [1] did it give?
Answer: 24.6 µM

Question: And the IC50 [2]?
Answer: 12 µM

Question: And the Kd [3]?
Answer: 3.63 µM

Question: What about the Kd [4] of the same binder?
Answer: 2.91 µM
